{
  "source": "paper PMC2734569",
  "about": "“Functional mapping of the fission yeast DNA polymerase δ B-subunit Cdc1 by site-directed and random pentapeptide insertion mutagenesis” (BMC Molecular Biology, 2009)",
  "experiment_in_all_cases": "two-hybrid; LexA-Cdc1 bait (pBTM116 or pBTM116BN) with Gal4-Pol3 prey and co-expressed c-myc-tagged Cdc27 (pAA-Cdc27) in S. cerevisiae CTY10-5d; ONPG liquid culture beta-galactosidase assay, mean of triplicates, as percent of wild-type Cdc1",
  "settings_in_all_cases": "partners not purified",
  "key": {"Cdc1-J10": {"target": "T1, Cdc1-J10 (Schizosaccharomyces pombe, UniProt P87324 1-462, Tyr-ArgGlyThrProTyr-Met)", "T1 construct": "Cdc1, S. pombe, with a pentapeptide inserted after residue 77; also called J11; E6; source: yeast two-hybrid fusion, in S. cerevisiae CTY10-5d", "T1 sequence (looked up)": "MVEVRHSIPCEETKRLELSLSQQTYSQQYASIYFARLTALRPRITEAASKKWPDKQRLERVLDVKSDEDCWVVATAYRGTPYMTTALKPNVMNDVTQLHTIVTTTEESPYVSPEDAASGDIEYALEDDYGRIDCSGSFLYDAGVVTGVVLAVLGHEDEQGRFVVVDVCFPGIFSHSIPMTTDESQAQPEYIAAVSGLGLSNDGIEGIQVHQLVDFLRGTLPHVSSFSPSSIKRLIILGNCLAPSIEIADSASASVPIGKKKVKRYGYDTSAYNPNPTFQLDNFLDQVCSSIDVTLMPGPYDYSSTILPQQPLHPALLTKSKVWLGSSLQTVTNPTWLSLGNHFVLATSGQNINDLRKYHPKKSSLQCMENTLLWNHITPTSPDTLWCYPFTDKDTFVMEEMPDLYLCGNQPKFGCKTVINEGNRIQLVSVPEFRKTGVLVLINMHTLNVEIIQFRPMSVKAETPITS"}, "Cdc1-J6": {"target": "T2, Cdc1-J6 (Schizosaccharomyces pombe, UniProt P87324 1-462, Tyr-GlyValProHisTyr-Gly)", "T2 construct": "Cdc1, S. pombe, with a pentapeptide inserted after residue 124; source: yeast two-hybrid fusion, in S. cerevisiae CTY10-5d", "T2 sequence (looked up)": "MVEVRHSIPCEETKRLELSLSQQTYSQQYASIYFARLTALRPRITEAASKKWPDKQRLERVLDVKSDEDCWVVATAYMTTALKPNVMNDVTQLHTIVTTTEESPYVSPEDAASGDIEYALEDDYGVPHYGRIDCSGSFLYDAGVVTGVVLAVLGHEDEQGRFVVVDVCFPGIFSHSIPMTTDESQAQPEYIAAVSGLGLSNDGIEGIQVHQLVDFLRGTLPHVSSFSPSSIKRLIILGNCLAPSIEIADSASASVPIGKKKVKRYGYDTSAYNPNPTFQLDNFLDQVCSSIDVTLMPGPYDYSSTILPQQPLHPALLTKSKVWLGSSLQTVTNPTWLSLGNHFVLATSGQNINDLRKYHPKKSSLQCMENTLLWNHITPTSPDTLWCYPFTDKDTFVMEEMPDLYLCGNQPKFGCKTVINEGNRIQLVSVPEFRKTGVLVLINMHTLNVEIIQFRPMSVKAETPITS"}, "Cdc1-J4": {"target": "T3, Cdc1-J4 (Schizosaccharomyces pombe, UniProt P87324 1-462, Ile-GlyValProArgIle-Asp)", "T3 construct": "Cdc1, S. pombe, with a pentapeptide inserted after residue 127; also called J5; J13; source: yeast two-hybrid fusion, in S. cerevisiae CTY10-5d", "T3 sequence (looked up)": "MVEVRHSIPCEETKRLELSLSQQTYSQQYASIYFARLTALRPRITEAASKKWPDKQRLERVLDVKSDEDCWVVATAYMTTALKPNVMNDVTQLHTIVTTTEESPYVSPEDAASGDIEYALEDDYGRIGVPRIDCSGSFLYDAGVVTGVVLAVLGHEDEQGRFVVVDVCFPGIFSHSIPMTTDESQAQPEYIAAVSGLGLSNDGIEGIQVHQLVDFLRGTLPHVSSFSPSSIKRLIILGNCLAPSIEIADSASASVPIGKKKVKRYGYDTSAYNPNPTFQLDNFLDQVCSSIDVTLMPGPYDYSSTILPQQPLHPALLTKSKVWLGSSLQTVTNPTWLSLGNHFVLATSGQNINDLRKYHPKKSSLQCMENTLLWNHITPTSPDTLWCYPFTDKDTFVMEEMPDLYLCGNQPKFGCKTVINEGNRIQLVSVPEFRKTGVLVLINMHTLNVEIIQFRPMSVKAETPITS"}, "Cdc1-E4": {"target": "T4, Cdc1-E4 (Schizosaccharomyces pombe, UniProt P87324 1-462, Cys-GlyValProProCys-Glu)", "T4 construct": "Cdc1, S. pombe, with a pentapeptide inserted after residue 10; source: yeast two-hybrid fusion, in S. cerevisiae CTY10-5d", "T4 sequence (looked up)": "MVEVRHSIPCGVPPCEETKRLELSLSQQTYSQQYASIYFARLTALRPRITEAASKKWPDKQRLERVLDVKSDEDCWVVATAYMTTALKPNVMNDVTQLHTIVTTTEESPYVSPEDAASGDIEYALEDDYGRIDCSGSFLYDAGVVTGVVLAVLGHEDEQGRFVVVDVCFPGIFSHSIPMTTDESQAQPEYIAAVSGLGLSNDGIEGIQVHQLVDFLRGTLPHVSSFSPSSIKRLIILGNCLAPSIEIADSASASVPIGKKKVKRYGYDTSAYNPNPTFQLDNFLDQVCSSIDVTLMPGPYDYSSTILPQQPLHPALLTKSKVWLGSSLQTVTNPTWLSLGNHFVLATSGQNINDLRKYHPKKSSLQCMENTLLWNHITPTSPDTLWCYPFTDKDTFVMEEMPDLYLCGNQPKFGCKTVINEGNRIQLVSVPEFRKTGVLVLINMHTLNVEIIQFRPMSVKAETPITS"}},
  "data": [
    {"binder": "Pol3 (fission yeast DNA polymerase delta catalytic subunit) (natural protein, Schizosaccharomyces pombe, UniProt P30316 1-1086, looked up, DNA polymerase delta catalytic subunit Pol3, S. pombe; prey plasmid named pACT-Pol3 in the results and pGAD2F-Pol3 in the methods; also called Gal4-Pol3; pACT-Pol3; source: yeast two-hybrid fusion, in S. cerevisiae CTY10-5d) MTDRSSNEGVVLNKENYPFPRRNGSIHGEITDVKRRRLSERNGYGDKKGSSSKEKTSSFEDELAEYASQLDQDEIKSSKDQQWQRPALPAINPEKDDIYFQQIDSEEFTEGSVPSIRLFGVTDNGNSILVHVVGFLPYFYVKAPVGFRPEMLERFTQDLDATCNGGVIDHCIIEMKENLYGFQGNEKSPFIKIFTTNPRILSRARNVFERGEFNFEELFPVGVGVTTFESNTQYLLRFMIDCDVVGMNWIHLPASKYQFRYQNRVSNCQIEAWINYKDLISLPAEGQWSKMAPLRIMSFDIECAGRKGVFPDPSIDPVIQIASIVTQYGDSTPFVRNVFCVDTCSQIVGTQVYEFQNQAEMLSSWSKFVRDVDPDVLIGYNICNFDIPYLLDRAKSLRIHNFPLLGRIHNFFSVAKETTFSSKAYGTRESKTTSIPGRLQLDMLQVMQRDFKLRSYSLNAVCSQFLGEQKEDVHYSIITDLQNGTADSRRRLAIYCLKDAYLPQRLMDKLMCFVNYTEMARVTGVPFNFLLARGQQIKVISQLFRKALQHDLVVPNIRVNGTDEQYEGATVIEPIKGYYDTPIATLDFSSLYPSIMQAHNLCYTTLLDSNTAELLKLKQDVDYSVTPNGDYFVKPHVRKGLLPIILADLLNARKKAKADLKKETDPFKKAVLDGRQLALKVSANSVYGFTGATNGRLPCLAISSSVTSYGRQMIEKTKDVVEKRYRIENGYSHDAVVIYGDTDSVMVKFGVKTLPEAMKLGEEAANYVSDQFPNPIKLEFEKVYFPYLLISKKRYAGLFWTRTDTYDKMDSKGIETVRRDNCPLVSYVIDTALRKMLIDQDVEGAQLFTKKVISDLLQNKIDMSQLVITKALSKTDYAAKMAHVELAERMRKRDAGSAPAIGDRVAYVIIKGAQGDQFYMRSEDPIYVLENNIPIDAKYYLENQLSKPLLRIFEPILGEKASSLLHGDHTRTISMAAPSVGGIMKFAVKVETCLGCKAPIKKGKTALCENCLNRSAELYQRQVAQVNDLEVRFARLWTQCQRCQGSMHQDVICTSRDCPIFYMRIAEHKKLQQSVDLLKRFDEMSW", "values": [
      {"measurement": "two-hybrid beta-galactosidase activity, % of wild-type Cdc1", "setting": "Cdc1-J10", "result": "< 1", "unit": "%"},
      {"measurement": "two-hybrid beta-galactosidase activity, % of wild-type Cdc1", "setting": "Cdc1-J6", "result": "< 1", "unit": "%"},
      {"measurement": "two-hybrid beta-galactosidase activity, % of wild-type Cdc1", "setting": "Cdc1-J4", "result": 36, "unit": "%"},
      {"measurement": "two-hybrid beta-galactosidase activity, % of wild-type Cdc1", "setting": "Cdc1-E4", "result": 16, "unit": "%"}
    ]}
  ]
}
